Data reported in article PMC7909837, “Function and Regulation of Chloroplast Peroxiredoxin IIE” (Antioxidants, 2021).

Target: T1, 14-3-3 υ protein, recombinant (A. thaliana, UniProt P42645 1-268)
T1 construct: 14-3-3 υ, A. thaliana, AT5G16050; construct and tags not described
T1 sequence (looked up): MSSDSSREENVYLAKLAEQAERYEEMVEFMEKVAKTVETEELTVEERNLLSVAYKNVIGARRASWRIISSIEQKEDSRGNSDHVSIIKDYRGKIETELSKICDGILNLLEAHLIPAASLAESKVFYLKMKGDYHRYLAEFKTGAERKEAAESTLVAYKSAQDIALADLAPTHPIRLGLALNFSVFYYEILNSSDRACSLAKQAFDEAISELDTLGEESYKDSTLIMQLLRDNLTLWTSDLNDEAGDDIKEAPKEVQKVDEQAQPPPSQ
Assay: far-Western, overlay or dot blot; dilution series of recombinant 14-3-3 υ spotted on nitrocellulose; incubated with PRX-IIE or its phospho-mimicry variants in TBS with either 1 mM DTT or 100 µM H2O2 overnight at 4 °C; detected with anti-PRX-IIE antibody; spots quantified with ImageJ
Details: both partners purified

- fold improvement of binding under oxidizing conditions (100 µM H2O2) against the other conditions: 2.5 fold
B1: Peroxiredoxin IIE (PRX-IIE), wild type, His6-tagged recombinant (enzyme, A. thaliana, UniProt Q949U7 71-234, looked up)
chain: ASISVGDKLPDSTLSYLDPSTGDVKTVTVSSLTAGKKTILFAVPGAFTPTCSQKHVPGFVSKAGELRSKGIDVIACISVNDAFVMEAWRKDLGINDEVMLLSDGNGEFTGKLGVELDLRDKPVGLGVRSRRYAILADDGVVKVLNLEEGGAFTNSSAEDMLKAL
notes: Peroxiredoxin IIE, A. thaliana, AT3G52960, cloned into pET28a (NdeI/BamHI); also called PRX-IIE WT; WT PRX-IIE; source: E. coli BL21 (DE3)pLysS, purified (Ni-NTA, dialysis)
